From the supplement of paper PMC9732359
± gives the uncertainty stated by the source.

Assay: protein stability index of a GFP-peptide fusion (yeast GPS) (PSI 1-4); higher = more stable; sorted into four equal gates, so the index is relative within each strain
How it was run: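 Each library plasmid carries Cherry plus GFP with a tiled 17-residue yeast protein peptide fused downstream, and the pooled library was carried in yeast. Mid-log cultures in leucine-free medium were sorted into four equal gates by GFP/Cherry ratio. Reads from Illumina sequencing of PCR-amplified plasmids from each gate were assigned to strains by barcodes. Per peptide, the protein stability index was computed as the summed products of gate read frequency and gate number.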

Sequence	protein stability index (doa10∆)	protein stability index (pdr5∆)	protein stability index (san1∆)	protein stability index (ubr1∆)
LASAIASGLLRAYLSHS [CSN12]	1.85 ± 0.045	1.5 ± 0.052	1.62 ± 0.071	1.4 ± 0.054
KCPGCLNITTVFSHAQT [RPS27A]	2.76 ± 0.046	2.76 ± 0.051	2.9 ± 0.045	2.99 ± 0.043
AFDIELSEFGIKKMLHL [YCS4]	3.11 ± 0.067	3.09 ± 0.088	2.67 ± 0.1	3.12 ± 0.063
MVVNGPIPDARNAALRA [SCL1]	2.38 ± 0.14	2.72 ± 0.11	2.36 ± 0.13	2.35 ± 0.091
IFINYKQTADWLAEKFQ [PRP28]	1.7 ± 0.049	1.93 ± 0.06	2.37 ± 0.072	2.36 ± 0.06
LPNEMSQNDGFVIIRGS [RPO31]	3.07 ± 0.19	3.13 ± 0.16	3.23 ± 0.18	
EEQLDLLSAILDPSKSK [MED11]	3.09 ± 0.099	3.18 ± 0.12	3.32 ± 0.11	3.64 ± 0.2
LKISGEEESLHVFQYAN [RPC37]	1.85 ± 0.13	2.21 ± 0.13	2.27 ± 0.14	2.41 ± 0.071
LDTQLITLLPSSLKESS [SNF12]	2.89 ± 0.24			
HNGRDKIQFHIHFADVA [RGR1]	1.68 ± 0.051	1.79 ± 0.049	1.43 ± 0.079	1.84 ± 0.043
NNNNNNNNNNNNDDNGN [MED2]	3.09 ± 0.038	2.94 ± 0.033	3.227 ± 0.029	3.23 ± 0.034
FQETLDSTVVYPLPKFP [MED8]	3.05 ± 0.05	3.19 ± 0.044	2.95 ± 0.042	3.15 ± 0.044
ASKTNLRLTDVTNSLSN [GAL11]	3.15 ± 0.072	3.38 ± 0.067	2.96 ± 0.051	3.28 ± 0.064
PSTTDDENGDKNDNGGK [SWI3]	3.09 ± 0.089	3.3 ± 0.069	3.23 ± 0.05	3.25 ± 0.079
TDAMTESQPKQTGTRRN [MCD1]	3.04 ± 0.12	3.35 ± 0.12	3.2 ± 0.068	3.09 ± 0.061
ELWRKEQKLQTVLETLL [SMC3]	2.9 ± 0.13	3.42 ± 0.11	2.7 ± 0.17	3.31 ± 0.064
DMPCDVLAKRMANLSQI [SCL1]	1.71 ± 0.09	1.4 ± 0.064	1.6 ± 0.17	1.61 ± 0.076
SLAGFHKVQTKLTRELE [RPS7A]	2.4 ± 0.065	1.98 ± 0.06	1.57 ± 0.13	2.04 ± 0.058
TEFEFYLLEELESYLIV [SSN8]	2.63 ± 0.099	2.72 ± 0.087	3.21 ± 0.12	2.72 ± 0.064
NYYSNKSNSTGNISSST [REC8]	2.79 ± 0.1	3.02 ± 0.099	2.85 ± 0.059	3.09 ± 0.064
LPNIYPSTRCKLKLLRM [RPT2]	1.33 ± 0.037	1.43 ± 0.049	1.37 ± 0.076	1.59 ± 0.048
AVKKLYAIIINYTKDNE [YCS4]	1.82 ± 0.057	2.05 ± 0.068	1.93 ± 0.1	1.91 ± 0.029
KLHVAAKLPGHKSLIRS [YGL100W/SEH1]	1.83 ± 0.11	2.03 ± 0.13		2.33 ± 0.094
LTSSKSVIVSQFCAFDS [SIN4]	2 ± 0.066	2.14 ± 0.06	1.98 ± 0.1	1.64 ± 0.066
DDLKQKKEELVEIAYHK [RPO31]	3.18 ± 0.16	3.13 ± 0.072	3.08 ± 0.14	3.08 ± 0.082
YHLHPTFANPNRTFTDP [TAF14]	1.94 ± 0.068	2.02 ± 0.055	2.21 ± 0.1	1.7 ± 0.036
IMNMIENVEKKEAALKT [SMC2]	1.76 ± 0.082	1.83 ± 0.079	1.67 ± 0.092	1.69 ± 0.05

Sequence	protein stability index (doa10∆)	protein stability index (pdr5∆)	protein stability index (san1∆)	protein stability index (ubr1∆)
SYDKTVKLWEEDPDQEE [YGL100W/SEH1]	3.32 ± 0.12	3.21 ± 0.079	3.3 ± 0.044	3.29 ± 0.06
NWSKEDLQKLLKGIQEF [SWI3]	3.27 ± 0.068	3.07 ± 0.057	3.09 ± 0.05	3.33 ± 0.055
IIFASTKLGFTFTIKEF [SNU114]	2.37 ± 0.078	2.44 ± 0.059	1.83 ± 0.074	2.56 ± 0.066
VASRHPSESEHPIRVLM [YDL116W/NUP84]		3 ± 0.25	2.9 ± 0.23	
LEMLKPCVEDGFVIQDR [RPB2]	3.17 ± 0.086	3.29 ± 0.12	3.19 ± 0.19	3.23 ± 0.077
YKLFIWLVVPTIYNLQH [YML031W/NDC1]	1.36 ± 0.033	1.51 ± 0.032	1.36 ± 0.059	1.26 ± 0.029
IENMTKEKVSNGGVGVD [FAS2]	3.23 ± 0.088	3.16 ± 0.1	3.33 ± 0.087	3.11 ± 0.063
ASVTKEILGTAQSVGCR [RPL12A]	1.35 ± 0.087	1.51 ± 0.044	1.35 ± 0.082	1.61 ± 0.082
IDQVMMSVSDNDQALIK [RET1]	2.9 ± 0.054	3.06 ± 0.066	3.13 ± 0.048	3.01 ± 0.051
AKLSERSNGSVASLSKR [YJL039C/NUP192]	2.33 ± 0.052	2.06 ± 0.043	1.81 ± 0.054	1.89 ± 0.035
QIPVYDTFDGSDLRVLS [FAS1]	2.7 ± 0.081	2.92 ± 0.059	2.53 ± 0.069	2.69 ± 0.058
SAKPSQIPTVSSPLGFE [SIR4]	3.14 ± 0.064	2.98 ± 0.058	2.85 ± 0.068	3.03 ± 0.047
KVISSDARGVIGVIAGG [RPL2A]	2.81 ± 0.086	2.82 ± 0.091	2.85 ± 0.1	2.84 ± 0.12
VDRSKYNIELPLPPRID [RPT1]	3.33 ± 0.2	3.58 ± 0.26	3.15 ± 0.094	3.14 ± 0.17
TKFSNPAIPPVIDLEKI [BRR2]	2.57 ± 0.068	2.75 ± 0.068	2.66 ± 0.063	2.65 ± 0.052
HKTFLVANVKDLETLTM [RPL32]		3.39 ± 0.26	3.22 ± 0.09	2.83 ± 0.17
DDSTKFQLVNDVMDELI [SIR3]	3.29 ± 0.15	3.37 ± 0.15	3.47 ± 0.1	3.39 ± 0.086
VEAQSHRLTLEDPVTVE [PRE6]	3.23 ± 0.15	3.88 ± 0.25		
SDIISMLQISDDNEMTR [RRI2]	3.05 ± 0.096	3.24 ± 0.1	3.2 ± 0.045	2.87 ± 0.1
LASIPDIFITPTPVVTI [SSN2]	1.71 ± 0.054	1.65 ± 0.054	1.45 ± 0.098	1.63 ± 0.044
VDVELITSINVENDTFI [FAS2]	3.4 ± 0.1	3.37 ± 0.069	3.09 ± 0.086	3.32 ± 0.072
YYSRITLLRLNELLDLT [RPN5]	2.61 ± 0.067	1.77 ± 0.048	2.44 ± 0.065	1.97 ± 0.072
TYNEDIPVEILVRRLSD [PRE9]	3.06 ± 0.079	2.84 ± 0.077	3.14 ± 0.064	2.85 ± 0.059
KVEKRVLGLTILRGEQI [SMB1]	1.69 ± 0.078	2.15 ± 0.12	2 ± 0.17	1.95 ± 0.091
LNTLLVTSADSNLKISL [SWI1]	2.71 ± 0.078	2.9 ± 0.065	2.89 ± 0.054	2.52 ± 0.08
ICLYSSFQKNSLHNTEK [AAR2]	1.99 ± 0.065	2.24 ± 0.058	2.57 ± 0.064	2.78 ± 0.057
INQYQLLYNLKNDILTN [SWI1]	1.63 ± 0.038	1.33 ± 0.049	1.28 ± 0.1	1.18 ± 0.036

Sequence	protein stability index (doa10∆)	protein stability index (pdr5∆)	protein stability index (san1∆)	protein stability index (ubr1∆)
GKTGLSNMILGSVELST [YML103C/NUP188]	2.24 ± 0.056	2.57 ± 0.086	2.34 ± 0.069	2.33 ± 0.042
SKVSIEQRKEAAEFVLA [RPN7]	2.12 ± 0.13	2.49 ± 0.15	2.45 ± 0.09	2.45 ± 0.06
QIQKNGPEITPEEATTI [PRP8]	2.85 ± 0.26	2.98 ± 0.15	2.83 ± 0.16	3.12 ± 0.16
RGHVLQFEWHQNSLLTN [SNF2]	1.93 ± 0.055	2.3 ± 0.064	3.11 ± 0.056	2.6 ± 0.048
FEGTDDNEEASVKLDLQ [BRN1]	3.2 ± 0.17	3.65 ± 0.11	3.49 ± 0.096	3.35 ± 0.098
NAIRIGELFLNESWKSS [SRP72]	3.39 ± 0.14	3.21 ± 0.083	2.62 ± 0.14	3.12 ± 0.062
AQFYLGKRIAYVYRASK [RPL33A]	1.81 ± 0.068	1.62 ± 0.076	1.36 ± 0.096	1.74 ± 0.069
KYSKLVDNVTLESYKTQ [SRP72]	3.54 ± 0.15	3.22 ± 0.16	3.42 ± 0.1	3.22 ± 0.11
DKTLRLWDVATGETYQR [ASC1]	3 ± 0.23	3.36 ± 0.16	2.18 ± 0.19	3.42 ± 0.091
LGPLFKKIVDDTIMENP [IRR1]	2.62 ± 0.071	2.88 ± 0.066	2.44 ± 0.13	2.82 ± 0.063
VNGAKNLVVSGPPQSLY [FAS1]	2.07 ± 0.1	1.78 ± 0.066	2.03 ± 0.088	2.2 ± 0.052
DSIASVLSPDSNIMSDS [GAL11]	2.74 ± 0.1	2.98 ± 0.073	3.03 ± 0.064	3.09 ± 0.099
YTVNVVDVFAMPQSGTG [RPN11]	3.08 ± 0.088	3.28 ± 0.1	3.3 ± 0.063	3.07 ± 0.077
EHHSSVKYASPNLNMKY [FAS2]	3.17 ± 0.068	3 ± 0.06	2.94 ± 0.054	2.92 ± 0.04
PLPPRIDPSVTMMTVEE [RPT1]	2.16 ± 0.08	1.9 ± 0.076	2.12 ± 0.17	1.88 ± 0.062
SVGTDPMPIITFLSEWG [RPB2]	2.7 ± 0.1	1.99 ± 0.057	1.57 ± 0.094	2.22 ± 0.062
KGDLRRGFIKSEGSGSS [RPC53]	3.43 ± 0.14	3.37 ± 0.1	3.31 ± 0.07	3.48 ± 0.15
LEKVVPLINVVVDILSA [BRR2]				1.26 ± 0.19
ELDTASRILKAQSRNVE [YGR119C/NUP57]	2.35 ± 0.055	2.34 ± 0.063	2.03 ± 0.077	2.43 ± 0.056
YLLEELESYLIVHHPYQ [SSN8]	2.56 ± 0.058	2.45 ± 0.06	2.43 ± 0.056	2.36 ± 0.044
AVSRSMTDIWNTLIPES [ECM29]	2.94 ± 0.067	3.05 ± 0.08	2.84 ± 0.054	3.03 ± 0.069
NASKVISTPIINAVLVN [RPO31]	1.63 ± 0.11	2.19 ± 0.14	1.74 ± 0.2	
SGNSANNMNVNMNLNPQ [GAL11]	2.85 ± 0.046	2.87 ± 0.042	2.73 ± 0.033	2.93 ± 0.034
NIPRRELKINLPLTEHK [SRB4]	2.93 ± 0.094	2.66 ± 0.072	3.23 ± 0.058	3.03 ± 0.12
LEFYKDKFFNEVNKSEL [SIR3]	3.31 ± 0.066	3.27 ± 0.058	3.25 ± 0.043	3.43 ± 0.064
IRKIVRKDENQFSYVDS [AAR2]	3.18 ± 0.12	3.14 ± 0.12	3.03 ± 0.073	3.12 ± 0.076
